Patent US20080008707A1, “Denatured collagen peptides and uses thereof” (Cell-Matrix, Inc., priority 2006, published 2008)
Values belong to the binder of their own block, whether it stands above or below them. Square brackets hold non-standard residues; d marks the D form. Ends that are not written are not given here. Hyp = O=C(O)[C@@H]1C[C@@H](O)CN1

Tests used:
[1] = biological target: HUI77, murine IgM anti-denatured-collagen monoclonal antibody; assay: competition ELISA on coated dn-collagen IV
[2] = biological target: D93, recombinant humanized IgG1 kappa antibody targeting denatured-collagen; assay: competition ELISA on coated human dn-collagen IV
D93, recombinant humanized IgG1 kappa antibody targeting denatured-collagen, sequence (heavy, as listed by the source, chain 1 of 2): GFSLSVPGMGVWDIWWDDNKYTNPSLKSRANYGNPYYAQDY
D93, recombinant humanized IgG1 kappa antibody targeting denatured-collagen, sequence (light, as listed by the source, chain 2 of 2): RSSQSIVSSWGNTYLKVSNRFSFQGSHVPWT

B2: synthetic peptide No. 9, LPGFPGC (SEQ ID NO: 37) (peptide)
peptide: LPGFPGC
modifications: also: hydroxyproline marking, if any, lost
- % inhibition of HUI77 binding to dn-collagen IV, peptide 10 µM [1]: 7%
- % inhibition of HUI77 binding to dn-collagen IV, peptide 100 µM [1]: 7.5%
- % inhibition of HUI77 binding to dn-collagen IV, peptide 1000 µM [1]: 8.5%
- % inhibition of D93 binding to dn-collagen IV, peptide 1 µM [2]: 8%
- % inhibition of D93 binding to dn-collagen IV, peptide 10 µM [2]: 3.5%
- % inhibition of D93 binding to dn-collagen IV, peptide 100 µM [2]: 1%
- % inhibition of D93 binding to dn-collagen IV, peptide 1000 µM [2]: 6.5%

B3: synthetic peptide No. 8, LPGTPG (SEQ ID NO: 27) (peptide)
peptide: L[Hyp]GT[Hyp]G
- % inhibition of HUI77 binding to dn-collagen IV, peptide 10 µM [1]: 3.5%
- % inhibition of HUI77 binding to dn-collagen IV, peptide 100 µM [1]: 4.5%
- % inhibition of HUI77 binding to dn-collagen IV, peptide 1000 µM [1]: 6%
- % inhibition of D93 binding to dn-collagen IV, peptide 1 µM [2]: 7%
- % inhibition of D93 binding to dn-collagen IV, peptide 10 µM [2]: 2%
- % inhibition of D93 binding to dn-collagen IV, peptide 100 µM [2]: 4.5%
- % inhibition of D93 binding to dn-collagen IV, peptide 1000 µM [2]: 24%

B5: synthetic peptide No. 4, … (SEQ ID NO: 28) (peptide)
peptide: PGP[Hyp]GP[Hyp]GPY
- % inhibition of HUI77 binding to dn-collagen IV, peptide 10 µM [1]: 7%
- % inhibition of HUI77 binding to dn-collagen IV, peptide 100 µM [1]: 16%
- % inhibition of HUI77 binding to dn-collagen IV, peptide 1000 µM [1]: 86.5%
- % inhibition of D93 binding to dn-collagen IV, peptide 1 µM [2]: 33.5%
- % inhibition of D93 binding to dn-collagen IV, peptide 10 µM [2]: 83%
- % inhibition of D93 binding to dn-collagen IV, peptide 100 µM [2]: 93.5%
- % inhibition of D93 binding to dn-collagen IV, peptide 1000 µM [2]: 93.5%

The next lines start with the values.

- % inhibition of HUI77 binding to dn-collagen IV, peptide 10 µM [1]: 6%
- % inhibition of HUI77 binding to dn-collagen IV, peptide 100 µM [1]: 9.5%
- % inhibition of HUI77 binding to dn-collagen IV, peptide 1000 µM [1]: 17.5%
- % inhibition of D93 binding to dn-collagen IV, peptide 1 µM [2]: 8%
- % inhibition of D93 binding to dn-collagen IV, peptide 10 µM [2]: 6.5%
- % inhibition of D93 binding to dn-collagen IV, peptide 100 µM [2]: 6.5%
- % inhibition of D93 binding to dn-collagen IV, peptide 1000 µM [2]: 46.5%
B1: synthetic peptide No. 14, LPGLPG (SEQ ID NO: 25) (peptide)
peptide: L[Hyp]GL[Hyp]G

- % inhibition of HUI77 binding to dn-collagen IV, peptide 10 µM [1]: 7.5%
- % inhibition of HUI77 binding to dn-collagen IV, peptide 100 µM [1]: 12%
- % inhibition of HUI77 binding to dn-collagen IV, peptide 1000 µM [1]: 44%
- % inhibition of D93 binding to dn-collagen IV, peptide 1 µM [2]: 9.5%
- % inhibition of D93 binding to dn-collagen IV, peptide 10 µM [2]: 21%
- % inhibition of D93 binding to dn-collagen IV, peptide 100 µM [2]: 77%
- % inhibition of D93 binding to dn-collagen IV, peptide 1000 µM [2]: 92.5%
B4: synthetic peptide No. 17, GPPGPPGP (SEQ ID NO: 31) (peptide)
peptide: GPXGPXGP
modifications: hydroxyproline at the P positions marked in Tables 13 and 14; marking lost in this text

- % inhibition of HUI77 binding to dn-collagen IV, peptide 10 µM [1]: 6%
- % inhibition of HUI77 binding to dn-collagen IV, peptide 100 µM [1]: 7.5%
- % inhibition of HUI77 binding to dn-collagen IV, peptide 1000 µM [1]: 77%
- % inhibition of D93 binding to dn-collagen IV, peptide 1 µM [2]: 8%
- % inhibition of D93 binding to dn-collagen IV, peptide 10 µM [2]: 17%
- % inhibition of D93 binding to dn-collagen IV, peptide 100 µM [2]: 64%
- % inhibition of D93 binding to dn-collagen IV, peptide 1000 µM [2]: 92.5%
B6: synthetic peptide No. 15, GPPGPPG (SEQ ID NO: 32) (peptide)
peptide: GPXGPXG
modifications: contains hydroxyproline ('where P is hydroxyproline'); positions marked in the tables but lost in this text

- % inhibition of HUI77 binding to dn-collagen IV, peptide 10 µM [1]: 6.5%
- % inhibition of HUI77 binding to dn-collagen IV, peptide 100 µM [1]: 9%
- % inhibition of HUI77 binding to dn-collagen IV, peptide 1000 µM [1]: 6%
- % inhibition of D93 binding to dn-collagen IV, peptide 1 µM [2]: 6%
- % inhibition of D93 binding to dn-collagen IV, peptide 10 µM [2]: 5%
- % inhibition of D93 binding to dn-collagen IV, peptide 100 µM [2]: 3%
- % inhibition of D93 binding to dn-collagen IV, peptide 1000 µM [2]: 17.5%
B7: synthetic peptide No. 18, … (SEQ ID NO: 22) (peptide)
peptide: LPGPPGPPG
modifications: also: hydroxyproline at marked P positions, if any, marking lost
